Test results from PMC3072266.

Target: 3AB wild type (poliovirus type 1 (Mahoney), UniProt P03300 1457-1565)
Test: EMSA

Chain of 3AB wild type (P03300 1457-1565): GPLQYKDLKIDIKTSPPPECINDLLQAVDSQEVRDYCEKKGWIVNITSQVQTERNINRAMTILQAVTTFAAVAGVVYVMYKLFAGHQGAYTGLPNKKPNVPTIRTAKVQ

GAGUGCACCAUAUGCCAUUCAGGCUACGCAACUGUUGGGA (ssRNA) [40-mer RNA]
binding result: binds
